The values that follow come from paper PMC11584650, “An inhibitory segment within G-patch activators tunes Prp43-ATPase activity during ribosome assembly” (Nature Communications, 2024).

Substrate in the data set: Nc1ncnc2c1ncn2[C@@H]1O[C@H](COP(=O)(O)OP(=O)(O)OP(=O)(O)O)[C@@H](O)[C@H]1O
Nature of the data set: pyruvate kinase/lactate dehydrogenase coupled NADH assay, Michaelis-Menten fit. Format: biochemical, Saccharomyces cerevisiae. As to conditions: no RNA, 20 mM MgCl2, 50 mM Hepes pH 7.5, 200 mM KCl, room temperature, ATP up to 2.5 mM. An excerpt: pyruvate kinase/lactate dehydrogenase coupled NADH assay, Michaelis-Menten fit on Prp43 | We obtained kinetic parameters for the ATPase activities of Prp43, Prp43:Tma23^M and Ppr43:Pxr1^M complexes

B1: Prp43 (Saccharomyces cerevisiae S288C) (protein)
chain: MGSKRRFSSEHPDPVETSIPEQAAEIAEELSKQHPLPSEEPLVHHDAGEFKGLQRHHTSAEEAQKLEDGKINPFTGREFTPKYVDILKIRRELPVHAQRDEFLKLYQNNQIMVFVGETGSGKTTQIPQFVLFDEMPHLENTQVACTQPRRVAAMSVAQRVAEEMDVKLGEEVGYSIRFENKTSNKTILKYMTDGMLLREAMEDHDLSRYSCIILDEAHERTLATDILMGLLKQVVKRRPDLKIIIMSATLDAEKFQRYFNDAPLLAVPGRTYPVELYYTPEFQRDYLDSAIRTVLQIHATEEAGDILLFLTGEDEIEDAVRKISLEGDQLVREEGCGPLSVYPLYGSLPPHQQQRIFEPAPESHNGRPGRKVVISTNIAETSLTIDGIVYVVDPGFSKQKVYNPRIRVESLLVSPISKASAQQRAGRAGRTRPGKCFRLYTEEAFQKELIEQSYPEILRSNLSSTVLELKKLGIDDLVHFDFMDPPAPETMMRALEELNYLACLDDEGNLTPLGRLASQFPLDPMLAVMLIGSFEFQCSQEILTIVAMLSVPNVFIRPTKDKKRADDAKNIFAHPDGDHITLLNVYHAFKSDEAYEYGIHKWCRDHYLNYRSLSAADNIRSQLERLMNRYNLELNTTDYESPKYFDNIRKALASGFFMQVAKKRSGAKGYITVKDNQDVLIHPSTVLGHDAEWVIYNEFVLTSKNYIRTVTSVRPEWLIEIAPAYYDLSNFQKGDVKLSLERIKEKVDRLNELKQGKNKKKSKHSKK
notes: full-length His6-tagged Prp43, expressed in E. coli BL21(DE3)*, Ni-NTA and size exclusion
With B1, the Km was determined as 19.04 ± 7.11 µM and the kcat was determined as 0.0318 ± 0.0005 s⁻¹.

Usually Km stands for the concentration of substrate that gives half-maximal velocity. A word on the kcat: it is the maximal rate divided by the concentration of active sites.
